From publication PMC10105285 (Cell reports, 2023)

Molecular target: T1, FLAG-tagged human LMAN1, wild type (pED-FLAG-LMAN1) (human, UniProt P49257 31-510)
T1 sequence (looked up): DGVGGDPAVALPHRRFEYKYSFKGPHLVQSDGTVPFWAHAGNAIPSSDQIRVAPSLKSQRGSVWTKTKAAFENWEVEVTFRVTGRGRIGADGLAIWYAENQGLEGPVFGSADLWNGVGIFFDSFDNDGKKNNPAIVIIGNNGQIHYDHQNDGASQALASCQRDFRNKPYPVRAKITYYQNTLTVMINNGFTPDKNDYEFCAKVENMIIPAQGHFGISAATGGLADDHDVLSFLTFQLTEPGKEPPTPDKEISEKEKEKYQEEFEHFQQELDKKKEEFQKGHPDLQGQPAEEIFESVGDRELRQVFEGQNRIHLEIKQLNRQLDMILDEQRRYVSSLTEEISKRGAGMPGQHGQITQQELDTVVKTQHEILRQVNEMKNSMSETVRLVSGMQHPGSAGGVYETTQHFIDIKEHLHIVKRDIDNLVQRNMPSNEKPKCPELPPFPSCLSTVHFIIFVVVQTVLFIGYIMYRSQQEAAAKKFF
Test: flow cytometry on cells

binding result: binds
B1: Der p 1 (Dermatophagoides pteronyssinus major mite allergen 1), biotinylated (natural protein, UniProt P08176 99-320, looked up)
chain: TNACSINGNAPAEIDLRQMRTVTPIRMQGGCGSCWAFSGVAATESAYLAYRNQSLDLAEQELVDCASQHGCHGDTIPRGIEYIQHNGVVQESYYRYVAREQSCRRPNAQRFGISNYCQIYPPNVNKIREALAQTHSAIAVIIGIKDLDAFRHYDGRTIIQRDNGYQPNYHAVNIVGYSNAQGVDYWIVRNSWDTNWGDNGYGYFAANIDLMMIEEYPYVVIL
modifications: biotinylated
